In paper PMC5934441 (2018):

What was measured:
[1] = molecular target: T1, recombinant ECTV CrmD (cytokine response modifier D), C-terminally tagged with V5 and 6xHis (ectromelia virus (ECTV)); assay: SPR
[2] = molecular target: T1, recombinant ECTV CrmD (cytokine …); assay: SPR; remark: listed apart in the source

B1: mouse Ccl27 (ligand)
chain: LPLPSSTSCCTQLYRQPLPSRLLRRIVHMELQEADGDCHLQAVVLHLARRSVCVHPQNRSLARWLERQGKRLQGTVPSLNLVLQKKMYSHPQQQN
[1]
  Kd: 5.41 nM
[2]
  koff: 0.00372 s⁻¹
